Assay results as given in patent publication US9045527 (WILLIAM MARSH RICE UNIVERSITY, dated 2015).
Where no end group is shown, it is not given here.

Legend:
[1] = biological target: CALP-H301A mutant (UniProt Q9HD26 278-362); assay: fluorescence anisotropy displacement of a fluorescent reporter peptide
Method: (§1) Protein binding studies: Fluorescence anisotropy inhibition binding assays were performed using standard procedures. […] Following equilibration, fluorescence anisotropy values were determined using a Tecan Infinite M1000 plate reader (n=3). Inhibitor equilibrium dissociation (Ki) constants were estimated as described. DMSO and rhodium(II) acetate were used as negative controls for unlabeled and labeled peptides, respectively.

[2] = biological target: T1, CAL PDZ domain (CALP), wild type (UniProt Q9HD26 278-362); assay: as above
Method: as §1

[3] = biological target: T1, CAL PDZ domain (CALP), wild type; assay: fluorescence anisotropy displacement of a fluorescent reporter peptide; apparent Ki, not significantly different from Rh2(OAc)4
Method: as §1

[4] = biological target: T2, K3a,eRh2 metallopeptide (chain 1 pos 9 (heptad a) and pos 13 (heptad e): Glu side-chain carboxylates bridged by one dirhodium(II) centre, written E. N-terminal acetyl per paragraph 78. C-terminal form not stated.); assay: thermal denaturation of an equimolar mixture, CD
T2 peptide: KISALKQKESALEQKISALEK

Ac-E(dirhodium)VQSTRL-OH (also: dirhodium metal complex at Glu side-chain carboxylate) [E^RhVQSTRL metallopeptide]
Ki [1]: 9.2 µM | Ki [2]: 0.56 µM

Ac-VQD(dirhodium)TRL-OH (also: dirhodium metal complex at Asp side-chain carboxylate) [VQD^RhTRL metallopeptide]
Ki [3]: 6.3 µM

Ac-E(dirhodium)WPTSII-OH (also: dirhodium metal complex at Glu side chain) [E^RhWPTSII metallopeptide]
Ki [2]: 1.7 µM

Ac-EISALEKCISALEQEISALEK [E3gC peptide]
binding result [4]: binds
